This test addresses human SIRPα V1 expressed on cells (NOR mouse macrophages or CHO cells) (human) (UniProt P78324). The experiment in a line: cell-based binding assay (NOR mouse macrophages). Also noted: unit not given beside the values. The following applies: Fc fusion.

human CD47-Fc fusion protein, sequence (Q08722 19-141): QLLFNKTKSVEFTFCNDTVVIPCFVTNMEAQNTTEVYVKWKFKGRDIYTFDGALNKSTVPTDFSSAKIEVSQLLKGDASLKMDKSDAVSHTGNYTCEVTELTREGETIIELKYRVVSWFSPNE
human SIRPα V1 expressed on cells (NOR mouse macrophages or CHO cells) (human), sequence (P78324 31-504): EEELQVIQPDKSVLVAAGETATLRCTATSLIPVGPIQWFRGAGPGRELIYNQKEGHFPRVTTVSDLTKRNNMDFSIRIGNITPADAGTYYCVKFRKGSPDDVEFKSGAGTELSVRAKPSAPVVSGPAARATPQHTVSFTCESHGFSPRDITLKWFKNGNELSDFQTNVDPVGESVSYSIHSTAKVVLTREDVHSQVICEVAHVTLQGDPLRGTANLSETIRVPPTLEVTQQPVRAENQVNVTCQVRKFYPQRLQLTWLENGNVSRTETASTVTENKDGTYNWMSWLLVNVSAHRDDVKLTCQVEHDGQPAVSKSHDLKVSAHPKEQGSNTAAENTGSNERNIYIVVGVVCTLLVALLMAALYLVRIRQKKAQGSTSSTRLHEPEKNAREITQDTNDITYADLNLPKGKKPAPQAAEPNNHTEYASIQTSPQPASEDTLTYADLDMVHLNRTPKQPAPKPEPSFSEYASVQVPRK

For “human CD47-Fc fusion protein (from UniProt Q08722 19-141)”, the Kd was 8.7 ?.

The record behind these values is patent publication US20140242095A1.
